Here are results for 23 molecules from PMC5766609 (Scientific Reports, 2018).

For test [1], the target named is T1, human GLP-1 receptor (GLP1R) (Homo sapiens, UniProt P43220).
T1 construct: expressed in transfected cells; host or cells: CHO-JumpIn cells, stably transfected
Description: cAMP assay on CHO-JumpIn cells stably transfected with human GLP-1 receptor (HitHunter cAMP).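 Also: peptides tested as 4-fold serial dilution series, cells exposed 1 hr at RT in the dark, cAMP quantified against a cAMP standard calibration curve.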 It counts as cell-based. As to conditions: Table 3, engineered versus parent peptides, cAMP accumulation, value ± spread, read-out: EC50 hGLP1. A general note: Changes in cAMP serve as a functional read-out for many G protein-coupled receptors.
Description: Briefly, a 2 μM solution of peptide was prepared, and 4-fold serial dilutions were made. 150 nL of the above titration was then dispensed into an Optiplate384 using an Echo555. […] The HitHunter® cAMP Assay kit calibration curve was prepared following the manufacturer’s protocol (DiscoveRx-90-0075L). 30,000 cells/well were added to the peptides, spun briefly at 500 rpm for 15 s and incubated at RT in the dark for 1 hr. The assay was developed as per the manufacturer’s instructions. cAMP accumulation due to GLP1R agonism or GCGR agonism was measured using an EnVision platereader (PerkinElmer), and calibrated using the cAMP standard curve. Data were analyzed using Assay Data Analyzer (ADA).

For test [2], the target named is T2, human glucagon receptor (GCGR) (Homo sapiens, UniProt P47871).
T2 construct: expressed in transfected cells; host or cells: CHO-JumpIn cells, stably transfected
Description: cAMP assay on CHO-JumpIn cells stably transfected with human glucagon receptor (HitHunter cAMP).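 Also: peptides tested as 4-fold serial dilutions starting from a 2 µM solution, cells exposed 1 hr at RT in darkness, cAMP quantified against a cAMP standard curve.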 It is filed as cell-based. As to conditions: Table 3; engineered versus parent peptides; cAMP accumulation, CHO-JumpIn cells with human GCGR; value ± spread; read-out: EC50 hGCGR.

The target of test [3] is glucagon receptor (human) (UniProt P47871).
The target in test [4] is human GLP-1 receptor (human) (UniProt P43220).
In test [5] the target is glucagon receptor (human) (UniProt P47871). The source holds these as a separate data set.
In test [6] the target is human GLP-1 receptor (human) (UniProt P43220). The source holds these as a separate data set.

In general, EC50 refers to the concentration needed to bring the measured effect to its halfway point.

Starred links: 1 amine or outer side, 2 acyl side, 3 side chain; linkers in the order of their positions; H or OH if unused. Non-standard residues stand in square brackets, D forms with d. Residues, ends and D or L forms follow the SMILES beside them. Groups on a side chain read outwards from the residue. No end group written: not given here. *: point of attachment. γGlu = O=C(O)[C@H](CCC(=O)[*:2])N[*:1]; Palmitoyl = CCCCCCCCCCCCCCCC(=O)*

Sequence of human GLP-1 receptor (human) (P43220 24-463): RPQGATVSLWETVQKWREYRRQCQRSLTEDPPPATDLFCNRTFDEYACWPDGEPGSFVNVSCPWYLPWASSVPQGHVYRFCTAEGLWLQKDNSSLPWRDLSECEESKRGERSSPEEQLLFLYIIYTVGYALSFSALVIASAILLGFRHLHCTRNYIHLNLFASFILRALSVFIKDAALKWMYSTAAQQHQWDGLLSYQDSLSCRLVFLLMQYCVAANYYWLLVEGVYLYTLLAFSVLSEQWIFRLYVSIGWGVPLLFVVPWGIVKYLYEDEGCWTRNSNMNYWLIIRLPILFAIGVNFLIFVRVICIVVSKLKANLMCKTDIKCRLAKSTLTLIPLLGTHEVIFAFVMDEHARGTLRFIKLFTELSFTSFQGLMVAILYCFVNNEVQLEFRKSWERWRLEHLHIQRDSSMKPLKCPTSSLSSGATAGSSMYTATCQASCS
Sequence of glucagon receptor (human) (P47871 26-477): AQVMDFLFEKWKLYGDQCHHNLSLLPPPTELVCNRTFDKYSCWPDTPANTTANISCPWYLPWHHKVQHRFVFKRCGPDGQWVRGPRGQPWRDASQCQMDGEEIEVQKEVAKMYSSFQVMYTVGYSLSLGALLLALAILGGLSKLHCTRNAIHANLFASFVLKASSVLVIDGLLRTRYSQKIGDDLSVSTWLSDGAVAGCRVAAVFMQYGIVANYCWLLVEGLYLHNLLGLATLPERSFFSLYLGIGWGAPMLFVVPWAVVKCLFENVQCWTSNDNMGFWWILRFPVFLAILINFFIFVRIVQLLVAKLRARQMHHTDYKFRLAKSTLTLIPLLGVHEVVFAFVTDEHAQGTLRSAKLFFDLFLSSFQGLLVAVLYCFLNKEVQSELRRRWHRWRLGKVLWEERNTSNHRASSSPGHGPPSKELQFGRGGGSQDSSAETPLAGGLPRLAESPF
T1 sequence (P43220 24-463): as the sequence (P43220 24-463) above
T2 sequence (P47871 26-477): as the sequence (P47871 26-477) above

As for `CCCCCCCCCCCCCCCC(=O)N[C@@H](CCC(=O)N[C@@H](CCC(=O)NCCCC[C@H](NC(=O)[C@H](CC(=O)O)NC(=O)[C@H](CO)NC(=O)[C@H](CC(C)C)NC(=O)[C@H](Cc1ccccc1)NC(=O)[C@@H](NC(=O)CNC(=O)[C@H](CCC(N)=O)NC(=O)[C@@H](CO)NC(=O)[C@@H](N)Cc1c[nH]cn1)[C@@H](C)O)C(=O)N[C@@H](CO)C(=O)N[C@@H](CCCCN)C(=O)N[C@@H](CC(C)C)C(=O)N[C@@H](CC(C)C)C(=O)N[C@@H](CC(=O)O)C(=O)N[C@@H](CO)C(=O)N[C@@H](CCCNC(=N)N)C(=O)N[C@@H](CCCNC(=N)N)C(=O)N[C@@H](C)C(=O)N[C@@H](CCC(N)=O)C(=O)N[C@@H](CC(=O)O)C(=O)N[C@@H](Cc1ccccc1)C(=O)N[C@H](C(=O)N[C@@H](CCC(N)=O)C(=O)N[C@@H](Cc1c[nH]c2ccccc12)C(=O)N[C@@H](CC(C)C)C(=O)N[C@@H](CCSC)C(=O)N[C@@H](CCC(N)=O)C(=O)N[C@H](C(N)=O)[C@@H](C)O)C(C)C)C(=O)O)C(=O)O` [Peptide 37] (H-H[dS]QGTFLSDK([γGlu-γGlu-Palmitoyl])SKLLDSRRAQDFVQWLMQT-NH2; N-terminus assumed), the EC50 in test [1] worked out at 23.5 ± 7.6 nM; in test [2] it was 0.037 ± 0.004 nM.

HSQGTFTSDYSKYLDSRRAQDFVDWLINS-NH2 [Peptide 28]: the EC50 GCGR (nM); cAMP assay on CHO-JumpIn cells with human GCGR in test [3] was 0.016 nM. The molecule also showed an EC50 GLP1R (nM); cAMP assay on CHO-JumpIn cells with human GLP1R in test [4] of 0.007 nM.

In test [3], HSQGTFTSDYSKYLDSKRAHDFVQWLLNT-NH2 [Peptide 24] showed an EC50 GCGR (nM); cAMP assay on CHO-JumpIn cells with human GCGR of 0.026 nM. The molecule also showed an EC50 GLP1R (nM); cAMP assay on CHO-JumpIn cells with human GLP1R in test [4] of 0.018 nM.

In test [3], HSQGTFTSDYSKYLDSLMAQDFVQWLMST-NH2 [Peptide 5] yielded an EC50 GCGR (nM); cAMP assay on CHO-JumpIn cells with human GCGR of 0.025 nM. In test [4], this molecule gave an EC50 GLP1R (nM); cAMP assay on CHO-JumpIn cells with human GLP1R of 0.133 nM.

For the molecule KALGQFTFTSDYSKYLDSRRAQDFVQWLMNT-NH2 [Peptide 21], in test [3], the EC50 GCGR (nM); cAMP assay on CHO-JumpIn cells with human GCGR was 4.18 nM. Besides, the EC50 GLP1R (nM); cAMP assay on CHO-JumpIn cells with human GLP1R in test [4] is 14.8 nM.

In test [3], HSQGTFTSDYSKYLDELRAYDFVQWLMNT-NH2 [Peptide 10] displayed an EC50 GCGR (nM); cAMP assay on CHO-JumpIn cells with human GCGR of 0.057 nM. In addition, in test [4], the EC50 GLP1R (nM); cAMP assay on CHO-JumpIn cells with human GLP1R is 0.038 nM.

In test [3], HSQGTFTSDYRKYLDERAAWDFVQWLMNT-NH2 [Peptide 3] displayed an EC50 GCGR (nM); cAMP assay on CHO-JumpIn cells with human GCGR of 1.35 nM. The EC50 GLP1R (nM); cAMP assay on CHO-JumpIn cells with human GLP1R in test [4] turned out to be 0.427 nM.

The molecule HSQGTFTSDYSKYLDSIRAQDFVQWLMDT-NH2 [Peptide 18] came in with an EC50 GCGR (nM); cAMP assay on CHO-JumpIn cells with human GCGR in test [3] of 0.037 nM. In test [4], this molecule had an EC50 GLP1R (nM); cAMP assay on CHO-JumpIn cells with human GLP1R of 0.056 nM.

Molecule ASMFTFFSDYSKYLDSRRAQDFVQWLMLT-NH2 [Peptide 15] returned an EC50 GLP1R (nM); cAMP assay on CHO-JumpIn cells with human GLP1R in test [4] above 200 nM.

In the case of INHEQWAFTSDYSKYLDSRRAQDFVQWLMNT-NH2 [Peptide 14], the EC50 GCGR (nM); cAMP assay on CHO-JumpIn cells with human GCGR in test [3] turned out to be 2.6 nM. In test [4], this molecule returned an EC50 GLP1R (nM); cAMP assay on CHO-JumpIn cells with human GLP1R of 16.7 nM.

B1: Peptide 36 (peptide)
peptide: H[dS]QGTFTSDK([γGlu-γGlu-Palmitoyl])SKYLDSRRAHDFVQWLLNT-NH2
modifications: N-terminus assumed
SMILES: CCCCCCCCCCCCCCCC(=O)N[C@@H](CCC(=O)N[C@@H](CCC(=O)NCCCC[C@H](NC(=O)[C@H](CC(=O)O)NC(=O)[C@H](CO)NC(=O)[C@@H](NC(=O)[C@H](Cc1ccccc1)NC(=O)[C@@H](NC(=O)CNC(=O)[C@H](CCC(N)=O)NC(=O)[C@@H](CO)NC(=O)[C@@H](N)Cc1c[nH]cn1)[C@@H](C)O)[C@@H](C)O)C(=O)N[C@@H](CO)C(=O)N[C@@H](CCCCN)C(=O)N[C@@H](Cc1ccc(O)cc1)C(=O)N[C@@H](CC(C)C)C(=O)N[C@@H](CC(=O)O)C(=O)N[C@@H](CO)C(=O)N[C@@H](CCCNC(=N)N)C(=O)N[C@@H](CCCNC(=N)N)C(=O)N[C@@H](C)C(=O)N[C@@H](Cc1c[nH]cn1)C(=O)N[C@@H](CC(=O)O)C(=O)N[C@@H](Cc1ccccc1)C(=O)N[C@H](C(=O)N[C@@H](CCC(N)=O)C(=O)N[C@@H](Cc1c[nH]c2ccccc12)C(=O)N[C@@H](CC(C)C)C(=O)N[C@@H](CC(C)C)C(=O)N[C@@H](CC(N)=O)C(=O)N[C@H](C(N)=O)[C@@H](C)O)C(C)C)C(=O)O)C(=O)O
As to B1, the EC50 hGCGR (nM); cAMP assay on CHO-JumpIn cells with human GCGR in test [5] came out at 0.023 nM. For the same molecule, in test [6], the EC50 hGLP1 (nM); cAMP assay on CHO-JumpIn cells with human GLP1R was determined as 0.05 nM.

Consider HSQGTFTSDYSKYLDSRMAYDFVQWLMNT-NH2 [Peptide 33], for which, in test [3], the EC50 GCGR (nM); cAMP assay on CHO-JumpIn cells with human GCGR came out at 0.079 nM. In test [4], the EC50 GLP1R (nM); cAMP assay on CHO-JumpIn cells with human GLP1R came out at 0.059 nM.

Regarding HSVGNFWSDYSKYLDSRRAQDFVQWLMLT-NH2 [Peptide 1], the EC50 GCGR (nM); cAMP assay on CHO-JumpIn cells with human GCGR in test [3] was 8.45 nM. The molecule further showed an EC50 GLP1R (nM); cAMP assay on CHO-JumpIn cells with human GLP1R in test [4] of 16.7 nM.

Consider HSQGTFTSDYSKYLDSRRAQDFVMTSMNT-NH2 [Peptide 26], for which the EC50 GCGR (nM); cAMP assay on CHO-JumpIn cells with human GCGR in test [3] is above 200 nM. The same molecule showed an EC50 GLP1R (nM); cAMP assay on CHO-JumpIn cells with human GLP1R in test [4] of 8.96 nM.

Consider HSQGTFTSDYSKYLDSRRAQDFVQWLINY-NH2 [Peptide 13], for which the EC50 GCGR (nM); cAMP assay on CHO-JumpIn cells with human GCGR in test [3] is 0.078 nM. This molecule also yielded an EC50 GLP1R (nM); cAMP assay on CHO-JumpIn cells with human GLP1R in test [4] of 0.039 nM.

HSQGTFTSDYSKYLDSRRAHDFVQWLLNT-NH2 [Peptide 11] displayed an EC50 GCGR (nM); cAMP assay on CHO-JumpIn cells with human GCGR in test [3] of 0.018 nM. In addition, the EC50 GLP1R (nM); cAMP assay on CHO-JumpIn cells with human GLP1R in test [4] came out at 0.018 nM.

The molecule HSQGTFFSDYSKYLDSRRAQDFVQWLLET-NH2 [Peptide 34] showed an EC50 GCGR (nM); cAMP assay on CHO-JumpIn cells with human GCGR in test [3] of 0.027 nM. In test [4], the EC50 GLP1R (nM); cAMP assay on CHO-JumpIn cells with human GLP1R came to 51.9 nM.

In test [3], HSQGTFTSDYSKYLDSRRAQDFVQWLLDS-NH2 [Peptide 35] showed an EC50 GCGR (nM); cAMP assay on CHO-JumpIn cells with human GCGR of 0.0019 nM. Besides, the EC50 GLP1R (nM); cAMP assay on CHO-JumpIn cells with human GLP1R in test [4] amounted to 0.018 nM.

In turn, HSQGTFTSDYSKYLDIGRAQDFVQWLLNT-NH2 [Peptide 4] yielded an EC50 GCGR (nM); cAMP assay on CHO-JumpIn cells with human GCGR in test [3] of 0.026 nM. Moreover, the EC50 GLP1R (nM); cAMP assay on CHO-JumpIn cells with human GLP1R in test [4] was 1.33 nM.

As for HSQGTFTSDYSKYVEDRRAHDFVQWLMNT-NH2 [Peptide 2], the EC50 GCGR (nM); cAMP assay on CHO-JumpIn cells with human GCGR in test [3] was found to be 2.24 nM. In test [4], this molecule gave an EC50 GLP1R (nM); cAMP assay on CHO-JumpIn cells with human GLP1R of 0.184 nM.

In test [3], HSQGIFFSDYSKYLDSRRAQDFVQWLMNT-NH2 [Peptide 30] returned an EC50 GCGR (nM); cAMP assay on CHO-JumpIn cells with human GCGR of 0.026 nM. Besides, the EC50 GLP1R (nM); cAMP assay on CHO-JumpIn cells with human GLP1R in test [4] is above 200 nM.

For the molecule HSQGTFLHDYYYYLDSRRAQDFVQWLMDT-NH2 [Peptide 17], the EC50 GCGR (nM); cAMP assay on CHO-JumpIn cells with human GCGR in test [3] was 0.527 nM. The EC50 GLP1R (nM); cAMP assay on CHO-JumpIn cells with human GLP1R in test [4] is above 200 nM.

For HSQGTFTSDYIKLLDSRRAQDFVQWLMNT-NH2 [Peptide 7], the EC50 GCGR (nM); cAMP assay on CHO-JumpIn cells with human GCGR in test [3] came to 0.301 nM. In test [4], this molecule showed an EC50 GLP1R (nM); cAMP assay on CHO-JumpIn cells with human GLP1R of 78.3 nM.
